Assay results: article PMC10388305, “Synthesis and Evaluation of a Monomethyl Auristatin E—Integrin αvβ6 Binding Peptide–Drug Conjugate for Tumor Targeted Drug Delivery” (Journal of Medicinal Chemistry, 2023)
Read-outs that look alike come from different tables or passages of the source.

Experiment: Blocking biodistribution, BxPC-3 model
Assay type: in vivo, mice
Conditions: female, athymic nude, mouse, iv, total radioactivity, 4 h p.i., DOTA-2 (50 mg/kg, 205 nmol) i.v. 10 min prior, γ-counter, mean ± SD, n = 2
Method: Aliquots of the formulated [^64Cu]PDC-1 in isotonic 0.9% saline (4.81–5.74 MBq, 1.7–2.1 μg, 0.26–0.31 nmol, 100 μL, pH 7.2) were injected i.v. as described above. Following the conscious uptake period, the mice were anesthetized (5% isoflurane), euthanized, and dissected (n ≥ 3/model/time point [4, 24, and 48 h]; the 48 h time point also included the imaging animals sacrificed after the PET scans). Tissues were collected, washed, weighed, and radioactivity measured in a γ-counter. Calibrated, decay-corrected radioactivity was expressed as the percentage of injected dose per gram of tissue (% ID/g). Data are reported as mean ± SD. The mean weights and standard deviation of the DX3puroβ6/DX3puro paired tumor model biodistribution mice were 24.3 ± 1.4 g at 4 h, 28.2 ± 2.9 g at 24 h, and 27.7 ± 2.6 g at 48 h. The mean weights and standard deviation of the BxPC-3 tumor model biodistribution mice were 25.1 ± 1.9 g at 4 h, 27.0 ± 1.1 g at 24 h and 27.1 ± 3.2 g at 48 h. For in vivo blocking studies, DOTA-2 (50 mg/kg, 205 nmol, 1.4 mg in 100 μL 0.9% saline) was injected i.v. into two animals/tumor model 10 min prior to [^64Cu]PDC-1. The animals were sacrificed after 4 h, tissues collected, washed, weighed, and radioactivity measured in a γ-counter. The mean weights and standard deviation for the blocking mice were 24.6 ± 0 and 27.9 ± 0.3 g for the DX3puroβ6/DX3puro paired and BxPC-3 tumor models, respectively.
Blocking biodistribution data of [64Cu]PDC-1 in paired DX3puroβ6/DX3puro and BxPC-3 tumor models.
Tumor Model DX3puroβ6/DX3puro BxPC-3
Table S6. Blocking biodistribution data of [ 64Cu]PDC-1 in paired DX3puroβ6/DX3puro and BxPC-3 tumor
models. Tissue uptake is expressed as the mean of the percentage of injected dose per gram of tissue ±
SD (n = 2/model, n/a = not applicable. P = 0.53 for DX3puroβ6 vs. DX3puro; P = 0.52 for BxPC-3 vs.

SMILES: CC[C@H](C)[C@@H]([C@@H](CC(=O)N1CCC[C@H]1[C@H](OC)[C@@H](C)C(=O)N[C@H](C)[C@@H](O)c1ccccc1)OC)N(C)C(=O)[C@@H](NC(=O)[C@H](C(C)C)N(C)C(=O)OCc1ccc(NC(=O)[C@H](CCCNC(N)=O)NC(=O)[C@@H](NC(=O)CCOCCOCCNC(=O)CCN2C(=O)CC(SC[C@H](NC(=O)CN3CCN(CC(=O)O)CCN(CC(=O)O)CCN(CC(=O)O)CC3)C(=O)NCCOCCOCCOCCOCCOCCOCCOCCOCCOCCOCCOCCOCCOCCOCCOCCOCCOCCOCCOCCOCCOCCOCCOCCOCCOCCOCCOCCOCCC(=O)N[C@@H](CC(N)=O)C(=O)N[C@@H](C)C(=O)N[C@H](C(=O)N3CCC[C@H]3C(=O)N[C@@H](CC(N)=O)C(=O)N[C@@H](CC(C)C)C(=O)N[C@@H](CCCNC(=N)N)C(=O)NCC(=O)N[C@@H](CC(=O)O)C(=O)N[C@@H](CC(C)C)C(=O)N[C@@H](CCC(N)=O)C(=O)N[C@H](C(=O)N[C@@H](CC(C)C)C(=O)N[C@@H](C)C(=O)N[C@@H](CCC(N)=O)C(=O)N[C@@H](CCCNC(=N)N)C(=O)N[C@H](C(=O)N[C@@H](C)C(=O)N[C@@H](CCCNC(=N)N)C(=O)N[C@H](C(=O)NCCOCCOCCOCCOCCOCCOCCOCCOCCOCCOCCOCCOCCOCCOCCOCCOCCOCCOCCOCCOCCOCCOCCOCCOCCOCCOCCOCCOCCC(N)=O)[C@@H](C)O)C(C)C)C(C)C)C(C)C)C2=O)C(C)C)cc1)C(C)C (stereo partly shown) [[^64Cu]PDC-1, metal not drawn]
- tissue uptake at 4 h (BxPC-3 (αvβ6 +) tumor, read-out: Tumor (αvβ6 +) BxPC-3 uptake, blocked): 0.61 ± 0.05 %ID/g
- tissue uptake at 4 h (blood, read-out: Blood uptake, blocked): 0.1 ± 0.02 %ID/g
- tissue uptake at 4 h (bone, read-out: Bone uptake, blocked): 0.14 ± 0.03 %ID/g
- tissue uptake at 4 h (brain, read-out: Brain uptake, blocked): 0.01 ± 0.01 %ID/g
- tissue uptake at 4 h (gall bladder, read-out: Gall Bladder uptake, blocked): 0.94 ± 0.35 %ID/g
- tissue uptake at 4 h (heart, read-out: Heart uptake, blocked): 0.21 ± 0.06 %ID/g
- tissue uptake at 4 h (kidney, read-out: Kidney uptake, blocked): 25.7 ± 2.55 %ID/g
- tissue uptake at 4 h (large intestines, read-out: Large Intestines uptake, blocked): 0.47 ± 0.08 %ID/g
- tissue uptake at 4 h (liver, read-out: Liver uptake, blocked): 1.01 ± 0.16 %ID/g
- tissue uptake at 4 h (lung, read-out: Lung uptake, blocked): 0.51 ± 0.16 %ID/g
- tissue uptake at 4 h (muscle, read-out: Muscle uptake, blocked): 0.07 ± 0.01 %ID/g
- tissue uptake at 4 h (pancreas, read-out: Pancreas uptake, blocked): 0.12 ± 0.01 %ID/g
- tissue uptake at 4 h (skin, read-out: Skin uptake, blocked): 0.31 ± 0.02 %ID/g
- tissue uptake at 4 h (small intestines, read-out: Small Intestines uptake, blocked): 0.51 ± 0.09 %ID/g
- tissue uptake at 4 h (spleen, read-out: Spleen uptake, blocked): 0.22 ± 0.03 %ID/g
- tissue uptake at 4 h (stomach, read-out: Stomach uptake, blocked): 0.38 ± 0.04 %ID/g
